T1: TrxA-His6-TbRAP1(639-733) (Trypanosoma brucei, UniProt C1JEX5 639-733)
T1 sequence: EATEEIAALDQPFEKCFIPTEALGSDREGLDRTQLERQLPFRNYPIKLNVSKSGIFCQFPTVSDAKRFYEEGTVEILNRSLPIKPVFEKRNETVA

T2: TrxA-His6-TbRAP1(639-761) 5A (Trypanosoma brucei, UniProt C1JEX5 639-761, R737A;K738A;R739A;R740A;R741A)
T2 sequence: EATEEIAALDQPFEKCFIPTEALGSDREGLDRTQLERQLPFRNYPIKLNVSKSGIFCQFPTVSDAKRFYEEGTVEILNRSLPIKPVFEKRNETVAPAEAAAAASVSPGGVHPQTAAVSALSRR

T3: TrxA-His6-TbRAP1(639-761) (Trypanosoma brucei, UniProt C1JEX5 639-761)
T3 sequence: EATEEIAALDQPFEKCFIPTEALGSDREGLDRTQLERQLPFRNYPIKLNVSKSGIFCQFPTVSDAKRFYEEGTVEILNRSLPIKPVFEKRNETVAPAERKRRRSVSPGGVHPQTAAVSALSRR

T4: TrxA-His6-TbRAP1(639-761) 2SA (Trypanosoma brucei, UniProt C1JEX5 639-761, S742A;S744A)
T4 sequence: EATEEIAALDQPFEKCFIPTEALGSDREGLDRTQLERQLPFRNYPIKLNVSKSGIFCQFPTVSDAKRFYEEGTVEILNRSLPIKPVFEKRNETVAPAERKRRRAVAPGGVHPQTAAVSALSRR

T5: TbRAP1(639-761), tag removed (Trypanosoma brucei, UniProt C1JEX5 639-761)
T5 sequence: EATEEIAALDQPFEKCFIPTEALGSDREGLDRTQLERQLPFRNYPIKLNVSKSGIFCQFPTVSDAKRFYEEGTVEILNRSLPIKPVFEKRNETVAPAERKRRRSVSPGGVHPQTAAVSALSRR

T6: TbRAP1(639-761) 5A, tag removed (Trypanosoma brucei, UniProt C1JEX5 639-761, R737A;K738A;R739A;R740A;R741A)
T6 sequence: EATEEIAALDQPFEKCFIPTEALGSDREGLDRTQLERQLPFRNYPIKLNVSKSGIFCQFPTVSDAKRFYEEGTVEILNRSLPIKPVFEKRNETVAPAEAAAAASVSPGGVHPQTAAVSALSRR


What was measured:
[1] = molecular target: T1, TrxA-His6-TbRAP1(639-733); assay: EMSA
[2] = molecular target: T2, TrxA-His6-TbRAP1(639-761) 5A; assay: EMSA
[3] = molecular target: T3, TrxA-His6-TbRAP1(639-761); assay: EMSA
[4] = molecular target: T4, TrxA-His6-TbRAP1(639-761) 2SA; assay: EMSA
[5] = molecular target: T3, TrxA-His6-TbRAP1(639-761); assay: EMSA; remark: listed apart in the source
[6] = molecular target: T3, TrxA-His6-TbRAP1(639-761); assay: competition
[7] = molecular target: T5, TbRAP1(639-761), tag removed; assay: NMR HSQC
[8] = molecular target: T6, TbRAP1(639-761) 5A, tag removed; assay: NMR HSQC

| Binder | binding result [1] | binding result [2] | Kd [3] | also measured |
| --- | --- | --- | --- | --- |
| dsDNA 100 bp random (dsDNA) DNA 1: GAATTCCAAAGAAGCCATGCGCCGTGCAGAGCAGGAAAAAGCCACACGGGAACTCCTCCTGCAACAAACTTCAGCACCACATGCATCATCAGTTACATCCGGGATCC DNA 2: GGATCCCGGATGTAACTGATGATGCATGTGGTGCTGAAGTTTGTTGCAGGAGGAGTTCCCGTGTGGCTTTTTCCTGCTCTGCACGGCGCATGGCTTCTTTGGAATTC | no binding | no binding | 21.5 µM | – |
| ssDNA 100 nt random (ssDNA) DNA: AATTCCAAAGAAGCCATGCGCCGTGCAGAGCAGGAAAAAGCCACACGGGAACTCCTCCTGCAACAAACTTCAGCACCACATGCATCATCAGTTACATCCG | no binding | no binding | 0.31 µM | binding result [4]: binds |
| dsDNA 150 bp random (dsDNA) DNA 1: GTACCGGGCCCCCCCTCGAGGTCGACGGTATCGATAAGCTTGATATCGAATTCAATTCCAAAGAAGCCATGCGCCGTGCAGAGCAGGAAAAAGCCACACGGGAACTCCTCCTGCAACAAACTTCAGCACCACATGCATCATCAGTTACATCCGGGATC DNA 2: GATCCCGGATGTAACTGATGATGCATGTGGTGCTGAAGTTTGTTGCAGGAGGAGTTCCCGTGTGGCTTTTTCCTGCTCTGCACGGCGCATGGCTTCTTTGGAATTGAATTCGATATCAAGCTTATCGATACCGTCGACCTCGAGGGGGGGCCCGGTAC | – | – | – | binding result [5]: binds |
| dsDNA 80 bp random (dsDNA) DNA 1: CGTGCAGAGCAGGAAAAAGCCACACGGGAACTCCTCCTGCAACAAACTTCAGCACCACATGCATCATCAGTTACATCCGG DNA 2: CCGGATGTAACTGATGATGCATGTGGTGCTGAAGTTTGTTGCAGGAGGAGTTCCCGTGTGGCTTTTTCCTGCTCTGCACG | – | – | – | binding result [3]: binds |
| dsDNA 200 bp random (dsDNA) DNA 1: CGCGCGTAATACGACTCACTATAGGGCGAATTGGGTACCGGGCCCCCCCTCGAGGTCGACGGTATCGATAAGCTTGATATCGAATTCCAAAGAAGCCATGCGCCGTGCAGAGCAGGAAAAAGCCACACGGGAACTCCTCCTGCAACAAACTTCAGCACCACATGCATCATCAGTTACATCCGGATCCACTAGTTCTAG DNA 2: CTAGAACTAGTGGATCCGGATGTAACTGATGATGCATGTGGTGCTGAAGTTTGTTGCAGGAGGAGTTCCCGTGTGGCTTTTTCCTGCTCTGCACGGCGCATGGCTTCTTTGGAATTCGATATCAAGCTTATCGATACCGTCGACCTCGAGGGGGGGCCCGGTACCCAATTCGCCCTATAGTGAGTCGTATTACGCGCG | – | – | – | binding result [6]: binds |
| random dsDNA 18 bp (NMR) (dsDNA) DNA 1: TGTTGAGGAGGTGGTGAT DNA 2: ATCACCACCTCCTCAACA | – | – | – | binding result [7]: binds; binding result [8]: no binding |

— publication PMC7500927
